Laboratory results taken from patent US6710030B1, “Contortrostain (CN) and methods for its use in preventing metastasis and other conditions” (University of Southern California, priority 1993, dated 2004).

Legend:
[1] = tested on: rabbit PRP; assay: ADP-induced platelet aggregation in rabbit PRP; format: cell-based; details: 20 μM ADP
Description: Column fractions obtained during purification were assayed for activity using fresh human platelet rich plasma (PRP) prepared from blood obtained from human volunteers who had had no medication for at least two weeks. Blood (36 ml) was drawn into 4 ml of 0.1 M citrate and centrifuged at 150×g for 20 minutes. The supernatant, PRP, was removed and the remaining blood was centrifuged at 10,000 RPM to obtain platelet poor plasma (PPP). Platelet counts were adjusted to 250,000 platelets/μl using a Coulter counter. A Helena four channel aggregometer was used to monitor platelet aggregation. Inhibition of ADP-induced platelet aggregation was monitored at 37° C. by adding venom fractions one minute prior to the addition of ADP (10-20 μM final concentration). […] Rabbit and canine PRP was prepared by the same procedure and used in the studies described below.
CN inhibited ADP-induced platelet aggregation in human, canine, and rabbit PRPs (FIG. 6). Empty circles represent human platelet rich plasma, solid circles represent canine PRP, and empty triangles represent rabbit PRP. Varying concentration of CN were preincubated for one minute with PRP prior to the addition of ADP.

[2] = tested on: MDA-MB-435 cells; assay: Invasion of MDA-MB-435 cells through Matrigel-coated invasion chamber; format: cell-based, human; details: 48 hrs
Description: 2.5×10^3 MDA-MB-435 cells treated with various concentration of CN were allowed to migrate across the Matrigel layer for 48 hrs. Assays at each CN concentration were performed in triplicate. Cells invaded through the Matrigel filter were fixed and stained. Invaded cells were quantitated with microscope by the mean of cell numbers in three randomly selected vision field.

[3] = tested on: chick chorioallantoic membrane; assay: bFGF and VEGF induced angiogenesis in chick chorioallantoic membrane model; details: in vivo
Text: Significance: The function of αvβ5 has been indicated by many studies. […] Although αvβ5 participates in the initiation of cell adhesion to vitronectin, unlike αvβ3 which mediates cell migration constitutively, αvβ5 mediates migration only when activated by growth factors, such as insulin-like growth factor-1 (IGF-1), epidermal growth factor (EGF), and transforming growth factor-α (TGF-α).

[4] = tested on: αvβ5 293 cells; assay: Phosphotyrosine immunoblot, 293 cells expressing αvβ5; format: cell-based, human; details: 10 min
Description: Cell culture, preparation and stimulation—T24 cells were maintained in RPMI 1640 medium containing 5% fetal bovine serum, and MDA-MB-435 and 293 cells were maintained in Dulbecco's modified Eagle's medium with 10% serum at 37° C. in 5% CO2. Cells were washed with phosphate-buffered saline (PBS) and starved in the appropriate serum-free medium for 6 h at 37° C. Cells were detached by brief treatment with 0.05% trypsin/0.02% EDTA in PBS and collected by centrifugation, resuspended in soybean trypsin inhibitor (1 mg/ml in serum-free medium), and washed in 2% bovine serum albumin/serum-free medium. Cells were maintained in suspension for 1 h in 2% bovine serum albumin/serum-free medium at 37° C. with end-over-end agitation. Quiescent cells (3×10^6/ml) were treated with disintegrins or other reagents while in suspension, or were allowed to adhere to Matrigel (Becton Dickinson, Bedford, Mass.) diluted 1:100 with serum-free medium during treatment. […]
Contortrostatin- induced signaling events are mediated by the αvβ3 integrin—The integrinbinding specificities of echistatin and flavoridin have been determined previously (Niewiarowski et al., supra; and Pfaff, M., McLane, M. A., Beviglia, L., Niewiarowski, S., and Timpl, R. (1994) Cell Adhesion and Communication 2, 491-501). […]

[5] = Solubility in water; format: physicochemical
Text: CN may be administered by a variety of heretofore known means suitable for delivery thereof into the blood stream in substantial amounts. Intravenous administration of CN in a suitable liquid vehicle or excipient is presently contemplated as the preferred route of administration. […] Alternatively, CN may be administered orally (in the form of tablets or capsules formulated with a suitable binder or excipient material, or in the form of aqueous or oily suspensions, solutions, emulsions, syrups or elixirs) or as a parenteral suspension. As is well known in the art, adjuvants such as local anesthetics, preservatives, buffering agents, lubricants, wetting agents, colorants, flavorings, fillers and diluents may suitably be included in any of these formulations.

B1: contortrostatin (protein)
chain: DAPANPCCDAATCKLTTGSQCADGLCCDQCKFMKEGTVCRRARGDDLDDYCNGISAGCPRNPFHA
In the case of B1, the “IC50 of ADP-induced rabbit platelet aggregation” value [1] is reported as 17.3 mg/L, the “invasion of synthetic basement membrane by MDA-MB-435 cells” value [2] is reported as “inhibitory effect” and the “angiogenesis induced by bFGF and VEGF” value [3] is reported as “inhibits angiogenesis”. The tyrosine phosphorylation [4] was “no response” and the solubility [5] was “soluble in water”.
